Results reported in paper PMC12614216.

Columns and labels:
[1] = biological target: OrfL (OB-fold protein encoded by ICESt3 of Streptococcus thermophilus), purified, untagged (Streptococcus thermophilus (ICESt3)); assay: SEC-MALS; isolated OrfM or OrfL at 30 µM; Superdex 200 Increase 10/300 GL; 20 mM Tris-HCl pH 7.5, 150 mM NaCl; monomer and dimer
[2] = biological target: OrfL (OB-fold protein encoded by ICESt3 of Streptococcus thermophilus), purified, untagged (Streptococcus thermophilus (ICESt3)); assay: ITC; OrfM at 280 µM injected into OrfL at 28 µM; 298 K; 20 mM Tris-HCl pH 7.5, 300 mM NaCl; single binding site model
[3] = biological target: OrfL (OB-fold protein encoded by ICESt3 of Streptococcus thermophilus), purified, untagged (Streptococcus thermophilus (ICESt3)); assay: SEC-MALS; OrfL and OrfM mixed at 1:1 and 2:1 OrfL:OrfM molar ratios; Superdex 200 Increase 10/300 GL; 20 mM Tris-HCl pH 7.5, 150 mM NaCl
[4] = biological target: OrfM (OB-fold protein encoded by ICESt3 of Streptococcus thermophilus), purified, untagged (Streptococcus thermophilus (ICESt3)); assay: SEC-MALS; isolated OrfM or OrfL at 30 µM; Superdex 200 Increase 10/300 GL; 20 mM Tris-HCl pH 7.5, 150 mM NaCl; monomer and dimer
[5] = biological target: OrfL (OB-fold protein encoded by ICESt3 of Streptococcus thermophilus), purified, untagged (Streptococcus thermophilus (ICESt3)); assay: switchSENSE (fluorescence proximity sensing); OrfL covalently coupled to a 48-mer DNA nanolever on the chip; OrfM injected at 0.625 to 10 µM; PE40 buffer (10 mM NaP pH 7.4, 40 mM NaCl, 0.05% Tween 20); 25°C

OrfL (OB-fold protein encoded by ICESt3 of Streptococcus thermophilus), purified, untagged (natural protein)
stoichiometry N [1]: 2

OrfM (OB-fold protein encoded by ICESt3 of Streptococcus thermophilus), purified, untagged (natural protein)
Ka [2]: 7.1e+06 M⁻¹ | Kd [2]: 0.14 µM | dH [2]: -150 kJ/mol | stoichiometry N [2]: 0.87 | fraction of the sample found as the complex (1:1 ratio) [3]: 92% | stoichiometry N [3]: 1 | fraction of the injected protein found as dimer [4]: 5% | stoichiometry N [4]: 2 | Kd [5]: 0.311 µM | koff [5]: 0.019 s⁻¹ | kon [5]: 62000 M⁻¹ s⁻¹
